According to publication PMC3005623 (Journal of molecular biology, 2010):
Substitutions are numbered along the chain they refer to. Names and notes keep the numbering of the source. Read-outs that look alike come from different tables or passages of the source. Values belong to the binder of their own block, whether it stands above or below them.

What was measured:
Assay in all cases: negative-stain electron microscopy
[1] = biological target: the molecule itself
[2] = biological target: Cdc12(Δ318–407) (S. cerevisiae)
[3] = biological target: the molecule itself; remark: listed apart in the source

percent of particles that are heptamers [2]: 31.5% | percent of particles that are hexamers [2]: 18.5% | percent of particles that are octamers [2]: 50%
B1: Cdc11 (natural protein, S. cerevisiae, UniProt P32458 1-415, looked up)
chain: MSGIIDASSALRKRKHLKRGITFTVMIVGQSGSGRSTFINTLCGQQVVDTSTTILLPTDTSTEIDLQLREETVELEDDEGVKIQLNIIDTPGFGDSLDNSPSFEIISDYIRHQYDEILLEESRVRRNPRFKDGRVHCCLYLINPTGHGLKEIDVEFIRQLGSLVNIIPVISKSDSLTRDELKLNKKLIMEDIDRWNLPIYNFPFDEDEISDEDYETNMYLRTLLPFAIIGSNEVYEMGGDVGTIRGRKYPWGILDVEDSSISDFVILRNALLISHLHDLKNYTHEILYERYRTEALSGESVAAESIRPNLTKLNGSSSSSTTTRRNTNPFKQSNNINNDVLNPASDMHGQSTGENNETYMTREEQIRLEEERLKAFEERVQQELLLKRQELLQREKELREIEARLEKEAKIKQEE
binding result [1]: binds

B2: Cdc3(K90A R93A R94A)–Cdc11–(His)6–Cdc12-Cdc10 complex (complex, S. cerevisiae)
chain 1: MSLKEEQVSIKQDPEQEERQHDQFNDVQIKQESQDHDGVDSQYTNGTQNDDSERFEAAESDVKVEPGLGMGITSSQSEKGQVLPDQPEIAFIAAQINGYVGFANLPKQWHRRSIKNGFSFNLLCVGPDGIGKTTLMKTLFNNDDIEANLVKDYEEELANDQEEEEGQGEGHENQSQEQRHKVKIKSYESVIEENGVKLNLNVIDTEGFGDFLNNDQKSWDPIIKEIDSRFDQYLDAENKINRHSINDKRIHACLYFIEPTGHYLKPLDLKFMQSVYEKCNLIPVIAKSDILTDEEILSFKKTIMNQLIQSNIELFKPPIYSNDDAENSHLSERLFSSLPYAVIGSNDIVENYSGNQVRGRSYPWGVIEVDNDNHSDFNLLKNLLIKQFMEELKERTSKILYENYRSSKLAKLGIKQDNSVFKEFDPISKQQEEKTLHEAKLAKLEIEMKTVFQQKVSEKEKKLQKSETELFARHKEMKEKLTKQLKALEDKKKQLELSINSASPNVNHSPVPTKKKGFLR
chain 2: B1 chain
chain 3: MSAATATAAPVPPPVGISNLPNQRYKIVNEEGGTFTVMLCGESGLGKTTFINTLFQTVLKRADGQQHRQEPIRKTVEIDITRALLEEKHFELRVNVIDTPGFGDNVNNNKAWQPLVDFIDDQHDSYMRQEQQPYRTKKFDLRVHAVLYFIRPTGHGLKPIDIETMKRLSTRANLIPVIAKADTLTAQELQQFKSRIRQVIEAQEIRIFTPPLDADSKEDAKSGSNPDSAAVEHARQLIEAMPFAIVGSEKKFDNGQGTQVVARKYPWGLVEIENDSHCDFRKLRALLLRTYLLDLISTTQEMHYETYRRLRLEGHENTGEGNEDFTLPAIAPARKLSHNPRYKEEENALKKYFTDQVKAEEQRFRQWEQNIVNERIRLNGDLEEIQGKVKKLEEQVKSLQVKKSHLK
chain 4: MDPLSSVQPASYVGFDTITNQIEHRLLKKGFQFNIMVVGQSGLGKSTLINTLFASHLIDSATGDDISALPVTKTTEMKISTHTLVEDRVRLNINVIDTPGFGDFIDNSKAWEPIVKYIKEQHSQYLRKELTAQRERFITDTRVHAILYFLQPNGKELSRLDVEALKRLTEIANVIPVIGKSDTLTLDERTEFRELIQNEFEKYNFKIYPYDSEELTDEELELNRSVRSIIPFAVVGSENEIEINGETFRGRKTRWSAINVEDINQCDFVYLREFLIRTHLQDLIETTSYIHYEGFRARQLIALKENANSRSSAHMSSNAIQR
binding result [1]: binds

B3: Cdc3(R111A R112A K115A)–Cdc11–(His)6–Cdc12-Cdc10 complex (complex, S. cerevisiae)
chain 1: B2 chain 1 with A90K, A93R, A94R, R111A, R112A, K115A
chain 2: B1 chain
chain 3: B2 chain 3
chain 4: B2 chain 4
binding result [1]: binds

B4: Cdc10 (natural protein, S. cerevisiae, UniProt P25342 1-322, looked up)
chain: B2 chain 4
binding result [3]: binds

B5: Cdc10(I22E) (natural protein, S. cerevisiae, UniProt P25342 1-322, looked up)
chain: B2 chain 4 with I22E
binding result [3]: binds

B6: Cdc10(H24A R25A K28A K29A) (natural protein, S. cerevisiae, UniProt P25342 1-322, looked up)
chain: B2 chain 4 with H24A, R25A, K28A, K29A
binding result [3]: binds
